Source: the MegaScale stability set (Tsuboyama et al. 2023)

B1: EEHEE_rd4_0469 (parent)
chain: ITIHVNGVTYHFDNPEEAEKFAQKMAKTYQLKMEIHNGEFHME

Variants of: B1
Test: folding stability dG (cDNA display proteolysis); higher = more stable
Conditions: PBS, room temperature

Folding stability dG [kcal/mol] of substitutions, site by site:
D13: P 1.17; L 1.28; Q 1.11; G 1.11; I 1.3; A 1.2; F 1.15; H 1.2; K 1.1; N 1.13; S 1.26; W 1.23; E 1.11; Y 1.23; R 1.15; M 1.16; T 1.25; V 1.21; C 1.81
F21: I 0.089; M 0.206; D -0.653; L 0.173; N -0.383; G -0.582; K -0.758; H 0.061; R -0.383; A 0.133; S -0.647; V 0.092; E -0.052; C 1.38; Y 0.564; Q -0.188; W 1.2; T -0.122
E16: H 1.14; W 1.16; F 1.2; Q 1.1; K 1.18; P 0.698; A 1.12; C 1.77; L 1.19; M 1.15; R 1.21; D 1.25; Y 1.19; I 1.18; S 1.12; G 1.02; V 1.18; T 1.09; N 1.03
K24: I 1.41; H 1.51; P -0.407; R 1.31; Q 1.2; N 0.976; V 1.29; E 1.39; D 1.09; F 1.99; A 1.11; T 1.1; Y 2.27; G 0.646; L 1.48; W 2.29; M 1.41; S 0.939
N14: S 1.07; H 0.946; E 0.901; D 1.19; Q 1; V 1.1; Y 0.849; T 1.09; P 0.129; M 0.98; A 0.947; R 1.09; F 1.05; G 0.9; W 1.05; I 1.22; K 1.1; L 1.18
E17: C 1.81; D 1.06; N 0.912; G 0.714; R 1.07; F 0.96; Y 0.867; L 1.19; W 1.01; I 1.09; K 1.14; H 0.948; M 1.07; T 1.07; S 1.15; Q 1.03; A 1.15; P 0.444; V 1.02
K27: W 1.38; N 0.922; S 1; T 1.02; I 1.34; Y 1.27; G 0.713; M 1.22; V 1.22; A 1.32; E 1.51; L 1.34; P 1.22; D 1.5; F 1.25; R 1.09; H 0.969; Q 1.24
T28: Q 1.51; N 1.24; P 0.094; H 1.45; V 1.22; K 1.69; D 1.87; M 1.65; Y 1.91; S 0.87; A 1.26; R 1.65; I 1.6; G 0.636; W 1.95; E 2; F 1.67; L 1.97
K20: L 1.23; Y 1.09; T 1.19; Q 1.17; W 1.02; I 1.18; F 1.1; G 0.79; E 1.11; M 1.15; R 1.17; C 2.01; D 1.03; A 1.21; V 1.17; H 1.15; S 1.15; N 1.02; P 0.383
Q23: D 0.989; Y 1.28; H 0.988; I 1.27; A 1.24; F 1.19; L 1.25; M 1.29; K 1.07; E 1.14; N 0.986; R 1.35; S 1.05; W 1.36; V 1.26; C 2.52; T 1.19; G 0.566
H11: V 1.07; W 1.24; Y 1.18; T 1.07; S 1.05
Y29: R 0.657; H 1.45; L 1.17; F 0.965; W 0.793; Q 1.05; P 1.7; S 1.05; N 1.29; T 1.05; E 1.6; G 1.59; I 0.788; K 0.768; V 0.848; M 0.899; D 1.59; C 2.3; A 1.07
A22: N 0.367; I 1.46; R 1.06; D -0.261; T 0.747; L 0.879; V 1.4; Y 1.01; H 0.587; W 0.941; F 0.747; C 1.76; Q 0.662; M 1.19; E 0.335; G 0.3; S 0.704; K 0.843
A26: Y 1.45; H 0.851; D 0.963; S 1.04; Q 0.97; G 0.919; V 0.794; F 1.19; L 1.25; R 1.1; I 1.31; E 1.12; T 0.708; W 1.63; K 1.01; P 0.076; M 1.46; N 0.766
M25: Y 0.664; W 1.07; A 0.464; D -0.066; T 0.301; K -0.083; F 0.692; P -0.979; S 0.059; V 0.732; I 0.968; R 0.041; G -0.244; N 0.081; C 1.66; H 0.288; Q 0.418; E 0.109; L 1.12
F12: M 0.391; S -0.408; G -0.935; L 0.299; H -0.29; Q -0.822; V 0.034; W 0.481; A -0.214; I 0.352; N -0.578; C 1.07; P -0.616; T -0.211; Y 0.526; K -0.93
P15: D 0.883; M 1.5; T 1.14; H 1.13; L 1.35; R 1.34; F 1.39; Y 1.36; A 1.14; Q 1.03; S 1.1; E 0.979; G 1.04; I 1.27; N 0.994; K 1.17; W 1.53; V 1.21
A18: H 0.114; F 1; W 0.81; V 0.798; D -0.444; Y 0.556; C 1.56; E 0.011; R 0.63; G 1.03; P -0.237; Q 0.282; N -0.125; I 0.525; K 0.431; T 0.325; S 0.425; M 0.753; L 0.747
E19: R 1.41; G 1.03; H 1.38; K 1.27; A 1.35; S 1.16; W 1.82; N 1.32; V 1.47; I 1.5; M 1.61; F 1.63; Y 1.6; Q 1.26; L 1.61; D 1.07; T 1.3; P -0.375
